Legend:
[1] = molecular target: Streptococcus pneumoniae topoisomerase IV ParC subunit, full length (Streptococcus pneumoniae) (UniProt P72525)
[2] = molecular target: T1, ParE44 (topoisomerase IV ParE ATPase domain) (Streptococcus pneumoniae, UniProt Q59961 1-402); assay: X-ray crystallography (1.97 A); AMP-PNP, Mg2+; side-bound outside the hole, two duplexes per dimer; Co-crystallization: protein:DNA 1:2.2, 10 mM MgCl2, 2 mM AMP-PNP, protein in 20 mM Tris-HCl pH 7.5, 100 mM NaCl, 1 mM 2-mercaptoethanol; 14-mer: 50 mM HEPES pH; details: protein: recombinant; tags: C-terminal 6xHis; chain copies: 2; blunt; self-complementary
[3] = molecular target: the molecule itself; assay: crystal structure; ParE44 co-crystallised with 14-mer duplex DNA 5'-…-3', 2 mM AMP-PNP, 10 mM MgCl2; sitting drop, 50 mM HEPES pH 7.0, 5 mM MgCl2, 25% PEG MME 550; through-hole DNA bound complex, space group C2, 2.83 Å
[4] = molecular target: T1, ParE44 (topoisomerase IV ParE ATPase …); assay: X-ray crystallography (2.83 A); AMP-PNP, Mg2+; DNA kinked in the dimer hole, one duplex per dimer; putative intercalated AMP-PNP; Co-crystallization: protein:DNA 1:2.2, 10 mM MgCl2, 2 mM AMP-PNP, protein in 20 mM Tris-HCl pH 7.5, 100 mM NaCl, 1 mM 2-mercaptoethanol; 14-mer: 50 mM HEPES pH; details: protein: recombinant; tags: C-terminal 6xHis; chain copies: 2; blunt; self-complementary

| Molecule | Cleavage: ATP-independent quinolone-promoted DNA cleavage activity of topo IV reconstituted from ParC and ParE, relative to wild type [1] | further results |
| --- | --- | --- |
| ParE D269V, full length (from UniProt Q59961 1-647) (enzyme) | 100% |  |
| ParE K281Q/D282A, full length (from UniProt Q59961 1-647) (enzyme) | 100% |  |
| ParE K291Q, full length (from UniProt Q59961 1-647) (enzyme) | 100% |  |
| ParE K313Q/E316Q, full length (from UniProt Q59961 1-647) (enzyme) | 100% |  |
| ParE K346Q, full length (from UniProt Q59961 1-647) (enzyme) | 100% |  |
| ParE K346Q/R353A, full length (from UniProt Q59961 1-647) (enzyme) | 100% |  |
| ParE R321Q, full length (from UniProt Q59961 1-647) (enzyme) | 100% |  |
| ParE R353A, full length (from UniProt Q59961 1-647) (enzyme) | 100% |  |
| ParE R353Q, full length (from UniProt Q59961 1-647) (enzyme) | 100% |  |
| ParE R396Q, full length (from UniProt Q59961 1-647) (enzyme) | 100% |  |
| ParE R400Q, full length (from UniProt Q59961 1-647) (enzyme) | 100% |  |
| ParE S268A, full length (from UniProt Q59961 1-647) (enzyme) | 100% |  |
| Streptococcus pneumoniae topoisomerase IV ParE subunit, wild type, full length (from UniProt Q59961 1-647) (enzyme) | 100% |  |
| 6-mer GCGCGC duplex (dsDNA) DNA 1: GCGCGC DNA 2: GCGCGC |  | binding result [2]: binds |
| Streptococcus pneumoniae ParE44 ATPase domain (residues 1-402) (domain or fragment, UniProt Q59961 1-402, looked up, ParE subunit of topoisomerase IV, Streptococcus pneumoniae, UniProt Q59961, residues 1-402 (ATPase domain); Crystallised as a closed dimer with AMP-PNP, Mg2+ and duplex DNA; also called ParE ATPase domain; N-terminal ParE44; source: E. coli BL21 λDE3, purified (Ni-NTA)) MSKKEININNYNDDAIQVLEGLDAVRKRPGMYIGSTDGAGLHHLVWEIVDNAVDEALSGFGDRIDVTINKDGSLTVQDHGRGMPTGMHAMGIPTVEVIFTILHAGGKFGQGGYKTSGGLHGVGSSVVNALSSWLEVEITRDGAVYKQRFENGGKPVTTLKKIGTAPKSKTGTKVTFMPDATIFSTTDFKYNTISERLNESAFLLKNVTLSLTDKRTNEAIEFHYENGVQDFVSYLNEDKEILTPVLYFEGEDNGFQVEVALQYNDGFSDNILSFVNNVRTKDGGTHETGLKSAITKVMNDYARKTGLLKEKDKNLEGSDYREGLAAVLSILVPEEHLQFEGQTKDKLGSPLARPVVDGIVADKLTFFLMENGELASNLIRKAIKARDAREAARKARDESRNG |  | binding result [3]: binds |
| 14-mer T-segment duplex (dsDNA) DNA 1: GCATATATATATGC DNA 2: GCATATATATATGC |  | binding result [4]: binds |

Reference: article PMC6030046, “Trapping of the transport-segment DNA by the ATPase domains of a type II topoisomerase” (Nature Communications, 2018)
